Numbering of substitutions follows the chain as printed. In names and notes the source's numbering stands. Read-outs that look alike come from different tables or passages of the source. Each block holds one binder with its values, some of them ahead of it.
Legend:
[1] = target: T1, 4-1BB expressed on Jurkat cells (4-1BB-Jurkat cells; GloResponse NFkB-luc2/4-1BB Jurkat cell line) (human, UniProt Q07011 24-255); test: cell-based or functional assay
[2] = target: T2, human PD-L1-Fc protein (Sinobio, 10084-H02H) (human, UniProt Q9NZQ7 19-239); test: DACE (dual antigen capture ELISA): plate coated with human PD-L1-Fc, then bispecific, then human 4-1BB-His, anti-His HRP
T2 construct: Purchased reagent; not shown: Fc part of the purchased fusion
T2 sequence (Q9NZQ7 19-239): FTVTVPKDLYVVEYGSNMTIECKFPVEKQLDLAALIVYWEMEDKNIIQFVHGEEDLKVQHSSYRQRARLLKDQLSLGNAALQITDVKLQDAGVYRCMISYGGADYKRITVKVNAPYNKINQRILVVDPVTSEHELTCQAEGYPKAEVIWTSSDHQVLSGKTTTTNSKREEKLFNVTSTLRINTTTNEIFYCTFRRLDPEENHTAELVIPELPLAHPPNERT
Description: (§1) Briefly, microtiter plates were coated with 100 ng/well of human PD-L1-Fc protein (Sinobio, 10084-H02H) in PBS at 4° C. overnight, then blocked with 100 μl/well of 1% BSA for 2 hours at 37° C. Three-fold dilutions of each of the BsAbs starting from 100 nM were added to each well and incubated for 2 hours at 37° C. The plates were washed with PBS/Tween and then incubate with 50 ng/well of human 4-1BB-His protein (Sinobio, 16498-H08H) in 1% BSA for 1 hour at 37° C. The plates were washed with PBS/Tween and then incubate with Anti-His HRP (Roche, Cat: 11965085001) for 1 hour at 37° C. After washing, the plates were developed with TMB substrate and analyzed by spectrophotometer at OD 450-650 nm.

[3] = target: T2, human PD-L1-Fc protein (Sinobio, …); test: DACE after incubation in human serum for 3, 7, 14 days at 37 C
Description: as §1, with “Binding activity was analyzed to DACE (Dual antigen captured ELISA) test. Briefly,” for “Briefly,”

[4] = target: T3, human 4-1BB-His protein (Sinobio, 16498-H08H) (human, UniProt Q07011 24-186); test: DACE (dual antigen capture ELISA): bispecific captured on coated human PD-L1-Fc binds soluble human 4-1BB-His, detected with anti-His HRP
T3 construct: Purchased reagent; not shown: His tag of the purchased protein
Description: as §1

[5] = target: T2, human PD-L1-Fc protein (Sinobio, …); test: DACE (dual antigen capture ELISA): bispecific titrated on coated human PD-L1-Fc; signal also needs binding of human 4-1BB-His (anti-His HRP)
Description: as §1

[6] = target: T1, 4-1BB expressed on Jurkat cells …; test: cell-based or functional assay; remark: listed apart in the source
[7] = target: T2, human PD-L1-Fc protein (Sinobio, …); test: DACE after incubation in human serum at 37 C for 0, 3, 7 or 14 days: bispecific titrated on coated human PD-L1-Fc; signal also needs binding of human 4-1BB-His (anti-His HRP)
Description: as §1, with “Binding activity was analyzed to DACE (Dual antigen captured ELISA) test. Briefly,” for “Briefly,”

[8] = target: T3, human 4-1BB-His protein (Sinobio, …); test: DACE after incubation in human serum for 3, 7, 14 days at 37 C
Description: as §1, with “Binding activity was analyzed to DACE (Dual antigen captured ELISA) test. Briefly,” for “Briefly,”

[9] = target: PD-L1 (Biacore kinetics, Example 1.5) (UniProt Q9NZQ7 19-238, limits assumed); test: SPR (Biacore), affinity ranking
Chain of PD-L1 (Biacore kinetics, Example 1.5) (Q9NZQ7 19-238 limits assumed): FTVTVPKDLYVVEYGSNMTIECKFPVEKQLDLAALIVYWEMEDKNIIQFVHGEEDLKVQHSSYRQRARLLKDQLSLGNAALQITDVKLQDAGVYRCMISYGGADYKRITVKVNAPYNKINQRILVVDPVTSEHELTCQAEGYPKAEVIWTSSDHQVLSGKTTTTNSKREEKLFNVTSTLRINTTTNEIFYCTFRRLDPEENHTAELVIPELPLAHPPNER

[10] = target: T1, 4-1BB expressed on Jurkat cells …; test: cell-based or functional assay; remark: listed apart in the source
[11] = target: T4, 4-1BB (Octet Red 96 kinetics, Example 2.2(3)) (human, UniProt Q07011 24-186, limits assumed); test: BLI (Octet Red 96), affinity ranking
T4 construct: also called human 4-1BB
Source text: To explore the binding kinetics of the humanized antibody, this example performed the affinity ranking by using Octet Red 96.

[12] = target: T5, human 4-1BB-Fc protein (human, UniProt Q07011 24-186, limits assumed); test: ELISA, plate coated with human 4-1BB-Fc, detection with anti-human IgG-HRP, OD 450-630 nm
T5 construct: not shown: Fc part of the fusion
Description: To evaluate the antigen binding activity, the antibody candidates were subjected to ELISA test. Briefly, microtiter plates were coated with human 4-1BB-Fc protein at 0.1 μg/ml in PBS, 100 μl/well at 4° C. overnight, then blocked with 100 μl/well of 5% BSA. […] The plates were washed with PBS/Tween and then incubate with goat-anti-human IgG antibody conjugated with Horse Radish Peroxidase (HRP) for 1 hour at RT. After washing, the plates were developed with TMB substrate and analyzed by spectrophotometer at OD 450-630 nm.

T1 sequence (Q07011 24-255 limits assumed): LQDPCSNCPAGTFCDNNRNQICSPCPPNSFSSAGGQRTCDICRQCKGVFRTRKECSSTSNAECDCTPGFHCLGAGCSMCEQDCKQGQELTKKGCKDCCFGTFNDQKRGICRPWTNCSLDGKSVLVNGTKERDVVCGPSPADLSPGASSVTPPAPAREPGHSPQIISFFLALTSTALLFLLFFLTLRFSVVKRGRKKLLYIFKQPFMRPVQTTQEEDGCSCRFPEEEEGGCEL

- EC50 (read off the curve), NFkB-luc2/4-1BB Jurkat reporter with PD-L1 positive target cells [1]: ~0.1 nM
- binding result [2]: binds
B1: ABLPNB.03 (H12x41B02; anti-PD-L1 H12 in IgG form and anti-4-1BB 41B02 in scFv form) (bispecific antibody)
heavy: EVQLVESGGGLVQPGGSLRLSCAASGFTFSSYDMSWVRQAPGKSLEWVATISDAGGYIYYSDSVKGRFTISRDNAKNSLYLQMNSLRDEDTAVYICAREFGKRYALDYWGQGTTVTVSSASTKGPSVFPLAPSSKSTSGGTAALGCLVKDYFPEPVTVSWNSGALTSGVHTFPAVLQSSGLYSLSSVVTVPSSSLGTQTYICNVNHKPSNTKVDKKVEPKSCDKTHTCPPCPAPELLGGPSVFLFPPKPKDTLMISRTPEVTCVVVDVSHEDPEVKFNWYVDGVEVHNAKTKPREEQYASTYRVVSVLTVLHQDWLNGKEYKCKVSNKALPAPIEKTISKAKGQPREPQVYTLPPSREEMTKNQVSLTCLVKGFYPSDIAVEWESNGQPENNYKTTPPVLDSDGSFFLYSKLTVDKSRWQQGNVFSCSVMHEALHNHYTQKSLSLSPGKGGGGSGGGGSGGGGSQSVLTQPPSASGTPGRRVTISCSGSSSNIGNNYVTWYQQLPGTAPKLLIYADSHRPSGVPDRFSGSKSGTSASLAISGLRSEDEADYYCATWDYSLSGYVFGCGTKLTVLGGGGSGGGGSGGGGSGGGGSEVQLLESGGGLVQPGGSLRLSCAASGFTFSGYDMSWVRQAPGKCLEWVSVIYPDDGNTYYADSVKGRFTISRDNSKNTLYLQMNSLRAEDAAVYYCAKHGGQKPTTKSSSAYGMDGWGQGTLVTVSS
light: DIQMTQSPSSLSASVGDRVTITCKASQDVTPAVAWYQQKPGKAPKLLIYSTSSRYTGVPSRFSGSGSGTDFTFTISSLQPEDIATYYCQQHYTTPLTFGQGTKLEIKRTVAAPSVFIFPPSDEQLKSGTASVVCLLNNFYPREAKVQWKVDNALQSGNSQESVTEQDSKDSTYSLSSTLTLSKADYEKHKVYACEVTHQGLSSPVTKSFNRGEC
notes: IgG x scFv form, IgG1 N297A backbone

- binding result [4]: binds
- EC50 (read off the curve) [5]: ~0.6 nM
B3: ABLPNB.04 (B6x41B01; anti-PD-L1 B6 in IgG form and anti-4-1BB 41B01 in scFv form) (bispecific antibody)
heavy: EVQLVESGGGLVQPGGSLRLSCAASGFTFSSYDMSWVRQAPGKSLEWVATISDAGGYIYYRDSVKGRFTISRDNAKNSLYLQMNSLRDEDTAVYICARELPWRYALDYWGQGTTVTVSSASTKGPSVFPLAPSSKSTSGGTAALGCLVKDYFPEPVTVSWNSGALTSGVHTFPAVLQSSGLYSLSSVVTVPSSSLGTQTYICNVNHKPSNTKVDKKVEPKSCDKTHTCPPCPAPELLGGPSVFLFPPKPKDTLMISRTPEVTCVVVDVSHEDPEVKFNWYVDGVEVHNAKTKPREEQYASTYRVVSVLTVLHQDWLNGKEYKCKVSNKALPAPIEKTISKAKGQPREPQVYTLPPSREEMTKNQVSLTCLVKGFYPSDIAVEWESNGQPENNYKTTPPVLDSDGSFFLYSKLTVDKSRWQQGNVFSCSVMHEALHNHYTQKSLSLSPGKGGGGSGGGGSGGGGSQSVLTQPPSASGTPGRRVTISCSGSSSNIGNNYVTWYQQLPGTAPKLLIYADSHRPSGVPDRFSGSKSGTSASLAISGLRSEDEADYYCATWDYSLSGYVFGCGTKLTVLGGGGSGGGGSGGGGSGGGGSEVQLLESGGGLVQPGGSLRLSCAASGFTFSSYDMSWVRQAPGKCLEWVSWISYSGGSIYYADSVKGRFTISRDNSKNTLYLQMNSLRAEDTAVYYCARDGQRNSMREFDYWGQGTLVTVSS
light: B1 light
notes: as for B1

- binding result [2]: binds
- binding result [4]: binds
B4: ABLPNB.01 (H12x41B01; anti-PD-L1 H12 in IgG form and anti-4-1BB 41B01 in scFv form) (bispecific antibody)
heavy: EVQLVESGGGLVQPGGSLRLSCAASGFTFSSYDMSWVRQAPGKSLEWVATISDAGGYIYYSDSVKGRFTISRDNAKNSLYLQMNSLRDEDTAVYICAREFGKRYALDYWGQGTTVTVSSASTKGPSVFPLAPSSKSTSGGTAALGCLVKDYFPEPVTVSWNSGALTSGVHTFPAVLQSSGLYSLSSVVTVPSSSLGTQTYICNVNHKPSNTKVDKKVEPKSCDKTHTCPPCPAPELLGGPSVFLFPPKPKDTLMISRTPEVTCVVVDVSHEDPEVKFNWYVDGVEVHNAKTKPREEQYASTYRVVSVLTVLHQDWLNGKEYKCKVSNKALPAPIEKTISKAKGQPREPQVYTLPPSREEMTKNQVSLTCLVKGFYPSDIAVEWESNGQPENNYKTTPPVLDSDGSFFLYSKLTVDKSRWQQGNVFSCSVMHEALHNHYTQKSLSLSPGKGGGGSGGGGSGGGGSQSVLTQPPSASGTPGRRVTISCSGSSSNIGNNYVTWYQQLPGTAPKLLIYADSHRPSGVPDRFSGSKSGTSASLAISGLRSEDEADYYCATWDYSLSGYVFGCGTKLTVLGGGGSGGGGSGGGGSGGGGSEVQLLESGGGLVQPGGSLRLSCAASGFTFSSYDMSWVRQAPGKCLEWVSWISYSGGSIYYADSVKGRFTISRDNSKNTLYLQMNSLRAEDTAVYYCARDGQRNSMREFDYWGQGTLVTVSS
light: B1 light
notes: IgG x scFv form; The heavy component is the H12 heavy chain (IgG1 N297A), a linker, and the scFv (VL-linker-VH, disulfide VL103-VH44)

- EC50 (read off the curve), NFkB-luc2/4-1BB Jurkat reporter with PD-L1 positive target cells [6]: ~0.09 nM
- binding result [3]: binds
B6: ABLPNB.08 (B6x41B01.04; anti-PD-L1 B6 in IgG form and anti-4-1BB 41B01.04 in scFv form) (bispecific antibody)
heavy: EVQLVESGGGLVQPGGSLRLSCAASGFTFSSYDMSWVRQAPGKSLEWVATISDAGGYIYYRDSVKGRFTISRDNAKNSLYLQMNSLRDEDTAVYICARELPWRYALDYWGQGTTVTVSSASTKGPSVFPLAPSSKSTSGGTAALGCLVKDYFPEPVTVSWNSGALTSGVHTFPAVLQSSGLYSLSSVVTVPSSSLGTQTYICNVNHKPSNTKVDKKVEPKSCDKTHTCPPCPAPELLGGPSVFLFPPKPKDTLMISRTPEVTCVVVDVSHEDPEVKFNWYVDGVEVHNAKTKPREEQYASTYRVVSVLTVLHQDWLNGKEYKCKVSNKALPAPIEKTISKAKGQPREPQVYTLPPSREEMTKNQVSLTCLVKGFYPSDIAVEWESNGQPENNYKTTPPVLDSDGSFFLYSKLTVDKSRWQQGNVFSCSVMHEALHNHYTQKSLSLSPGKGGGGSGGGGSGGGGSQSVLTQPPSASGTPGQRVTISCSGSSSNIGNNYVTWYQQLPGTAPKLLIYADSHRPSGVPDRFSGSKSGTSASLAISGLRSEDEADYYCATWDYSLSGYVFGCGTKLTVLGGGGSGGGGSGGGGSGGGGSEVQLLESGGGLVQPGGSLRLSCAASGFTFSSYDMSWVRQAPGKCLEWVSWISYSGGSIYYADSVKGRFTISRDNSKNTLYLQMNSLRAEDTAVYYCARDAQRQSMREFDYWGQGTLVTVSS
light: B1 light
notes: as for B1

- EC50 (read off the curve), NFkB-luc2/4-1BB Jurkat reporter, Fc-crosslinked antibody [10]: ~4 nM
- Kd [11]: 0.18 nM
- koff [11]: 0.000119 s⁻¹
- kon [11]: 658000 M⁻¹ s⁻¹
- EC50 (read off the curve) [12]: ~0.08 nM
B10: 41B01 (anti-4-1BB monoclonal antibody) (antibody, V domains shown)
VH: EVQLLESGGGLVQPGGSLRLSCAASGFTFSSYDMSWVRQAPGKGLEWVSWISYSGGSIYYADSVKGRFTISRDNSKNTLYLQMNSLRAEDTAVYYCARDGQRNSMREFDYWGQGTLVTVSS
VL: QSVLTQPPSASGTPGRRVTISCSGSSSNIGNNYVTWYQQLPGTAPKLLIYADSHRPSGVPDRFSGSKSGTSASLAISGLRSEDEADYYCATWDYSLSGYVFGGGTKLTVL
notes: Detected with anti-human IgG, so it was tested as a human IgG

The remaining lines, values behind:

B2: ABLPNB.05 (B6x41B01.01; anti-PD-L1 B6 in IgG form and anti-4-1BB 41B01.01 in scFv form) (bispecific antibody)
heavy: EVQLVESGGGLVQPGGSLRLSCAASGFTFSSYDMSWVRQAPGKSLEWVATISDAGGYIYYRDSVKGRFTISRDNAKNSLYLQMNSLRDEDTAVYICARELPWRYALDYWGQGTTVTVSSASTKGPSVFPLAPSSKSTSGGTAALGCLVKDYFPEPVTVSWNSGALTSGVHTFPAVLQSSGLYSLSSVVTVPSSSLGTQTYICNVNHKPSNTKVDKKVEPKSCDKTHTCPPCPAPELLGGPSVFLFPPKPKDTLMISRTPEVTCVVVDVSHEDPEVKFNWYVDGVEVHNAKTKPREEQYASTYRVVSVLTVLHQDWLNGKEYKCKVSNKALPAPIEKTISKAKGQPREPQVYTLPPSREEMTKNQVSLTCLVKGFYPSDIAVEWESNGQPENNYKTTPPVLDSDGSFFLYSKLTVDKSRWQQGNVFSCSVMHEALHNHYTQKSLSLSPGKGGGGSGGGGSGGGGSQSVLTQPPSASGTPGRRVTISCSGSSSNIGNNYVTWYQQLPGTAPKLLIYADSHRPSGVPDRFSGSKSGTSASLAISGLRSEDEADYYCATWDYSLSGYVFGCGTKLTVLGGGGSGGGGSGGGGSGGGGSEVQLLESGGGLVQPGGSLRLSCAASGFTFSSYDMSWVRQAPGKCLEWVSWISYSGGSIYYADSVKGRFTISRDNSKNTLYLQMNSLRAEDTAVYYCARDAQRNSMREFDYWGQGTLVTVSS
light: B1 light
notes: as for B1
- binding result [3]: binds

B5: ABLPNB.07 (B6x41B01.03; anti-PD-L1 B6 in IgG form and anti-4-1BB 41B01.03 in scFv form) (bispecific antibody)
heavy: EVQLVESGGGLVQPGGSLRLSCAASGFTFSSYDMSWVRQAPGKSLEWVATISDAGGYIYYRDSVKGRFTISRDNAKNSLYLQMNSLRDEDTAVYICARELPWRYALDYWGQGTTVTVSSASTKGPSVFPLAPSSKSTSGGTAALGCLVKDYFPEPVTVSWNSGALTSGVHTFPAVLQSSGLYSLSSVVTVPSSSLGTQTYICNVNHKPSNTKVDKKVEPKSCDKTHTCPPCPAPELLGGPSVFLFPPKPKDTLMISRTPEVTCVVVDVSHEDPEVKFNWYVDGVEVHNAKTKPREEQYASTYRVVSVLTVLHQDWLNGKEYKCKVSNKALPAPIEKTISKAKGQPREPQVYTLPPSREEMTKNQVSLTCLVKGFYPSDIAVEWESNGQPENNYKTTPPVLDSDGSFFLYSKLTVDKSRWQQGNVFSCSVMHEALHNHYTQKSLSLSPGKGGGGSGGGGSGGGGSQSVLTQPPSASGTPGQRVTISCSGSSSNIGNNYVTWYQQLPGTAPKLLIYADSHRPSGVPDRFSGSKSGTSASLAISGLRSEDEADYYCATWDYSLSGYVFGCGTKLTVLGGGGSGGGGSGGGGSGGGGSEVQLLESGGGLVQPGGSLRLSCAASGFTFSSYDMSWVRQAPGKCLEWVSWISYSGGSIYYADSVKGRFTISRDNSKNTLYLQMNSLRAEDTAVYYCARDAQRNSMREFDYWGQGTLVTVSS
light: B1 light
notes: as for B1
- EC50 (read off the curve), NFkB-luc2/4-1BB Jurkat reporter with PD-L1 positive target cells [6]: ~0.06 nM
- EC50 (read off the curve) [5]: ~0.9 nM
- EC50 (read off the curve) [7]: ~0.2 nM

B7: ABLPNB.06 (anti-PD-L1 B6 in IgG form and anti-4-1BB 41B01.02 in scFv form) (bispecific antibody)
heavy: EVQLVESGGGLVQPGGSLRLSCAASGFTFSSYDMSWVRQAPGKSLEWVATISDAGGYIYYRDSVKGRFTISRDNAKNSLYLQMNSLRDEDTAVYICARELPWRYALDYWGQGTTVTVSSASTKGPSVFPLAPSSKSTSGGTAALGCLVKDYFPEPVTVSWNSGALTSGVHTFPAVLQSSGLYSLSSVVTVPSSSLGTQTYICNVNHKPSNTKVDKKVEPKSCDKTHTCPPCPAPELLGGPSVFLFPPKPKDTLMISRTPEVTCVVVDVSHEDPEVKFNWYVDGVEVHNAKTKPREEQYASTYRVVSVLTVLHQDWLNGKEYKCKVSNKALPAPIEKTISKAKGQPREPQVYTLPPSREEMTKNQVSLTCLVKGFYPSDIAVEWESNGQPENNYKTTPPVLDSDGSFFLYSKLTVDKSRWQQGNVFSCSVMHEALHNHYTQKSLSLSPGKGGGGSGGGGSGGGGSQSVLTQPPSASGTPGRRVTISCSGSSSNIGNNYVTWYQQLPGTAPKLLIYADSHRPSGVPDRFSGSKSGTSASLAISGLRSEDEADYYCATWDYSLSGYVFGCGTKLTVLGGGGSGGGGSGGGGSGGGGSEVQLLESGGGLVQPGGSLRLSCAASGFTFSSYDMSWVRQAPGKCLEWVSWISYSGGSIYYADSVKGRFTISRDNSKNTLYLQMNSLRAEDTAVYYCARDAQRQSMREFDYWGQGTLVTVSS
light: B1 light
notes: as for B1
- binding result [8]: binds
- binding result [3]: binds

B8: H12 (Hu1210-41; Hu1210 VH.4d x Hu1210 VK.1) (antibody, V domains shown)
VH: EVQLVESGGGLVQPGGSLRLSCAASGFTFSSYDMSWVRQAPGKSLEWVATISDAGGYIYYSDSVKGRFTISRDNAKNSLYLQMNSLRDEDTAVYICAREFGKRYALDYWGQGTTVTVSS
VL: DIQMTQSPSSLSASVGDRVTITCKASQDVTPAVAWYQQKPGKAPKLLIYSTSSRYTGVPSRFSGSGSGTDFTFTISSLQPEDIATYYCQQHYTTPLTFGQGTKLEIK
notes: also called WT (H12)
- Kd [9]: 6.12 nM
- koff [9]: 0.000436 s⁻¹
- kon [9]: 71200 M⁻¹ s⁻¹

B9: B6 (anti-PD-L1 clone derived from Hu1210-41) (antibody, V domains shown)
VH: B8 VH with S61R, F100L, G101P, K102W
VL: B8 VL
- Kd [9]: 4.25 nM
- koff [9]: 0.000418 s⁻¹
- kon [9]: 98300 M⁻¹ s⁻¹

B11: 41B02 (anti-4-1BB monoclonal antibody) (antibody, V domains shown)
VH: EVQLLESGGGLVQPGGSLRLSCAASGFTFSGYDMSWVRQAPGKGLEWVSVIYPDDGNTYYADSVKGRFTISRDNSKNTLYLQMNSLRAEDAAVYYCAKHGGQKPTTKSSSAYGMDGWGQGTLVTVSS
VL: B10 VL
notes: Detected with anti-human IgG
- Kd [11]: 1.01 nM
- koff [11]: 0.000603 s⁻¹
- kon [11]: 595000 M⁻¹ s⁻¹
- EC50 (read off the curve) [12]: ~0.2 nM

Reference: patent US20250145718A1 (ABL BIO, published 2025)
